How the values were obtained:
Experiment in all cases: co-IP; HEK293 cells co-transfected with Flag-HBx wt or alanine substitution mutants and His-myc-Spin1; precipitated with anti-Flag antibodies, anti-Myc and anti-Flag blots quantified with the Odyssey system; signal normalised to HBx in the IP/HBx in the input, Flag-HBx wt set to 100% (Figure 1C)
[1] = molecular target: Flag-HBx Cm8, clustered alanine substitution mutant (Hepatitis B virus) (UniProt P69713)
[2] = molecular target: Flag-HBx Cm13, clustered alanine substitution mutant (Hepatitis B virus) (UniProt P69713)
[3] = molecular target: Flag-HBx Cm7, clustered alanine substitution mutant (Hepatitis B virus) (UniProt P69713)
[4] = molecular target: Flag-HBx Cm5, clustered alanine substitution mutant (Hepatitis B virus) (UniProt P69713)
[5] = molecular target: Flag-HBx Cm9, clustered alanine substitution mutant (Hepatitis B virus) (UniProt P69713)

## His-Myc-Spindlin1 (from UniProt Q9Y657 1-262) (natural protein)
[1]
  percent of Spindlin1 immunoprecipitated (Flag-HBx wt = 100%): 52%
[2]
  percent of Spindlin1 immunoprecipitated (Flag-HBx wt = 100%): 29%
[3]
  percent of Spindlin1 immunoprecipitated (Flag-HBx wt = 100%): 13%
[4]
  percent of Spindlin1 immunoprecipitated (Flag-HBx wt = 100%): 10%
[5]
  percent of Spindlin1 immunoprecipitated (Flag-HBx wt = 100%): 28%

— publication PMC4161474
